Test results reported in patent US20200353062A1, “PHARMACEUTICAL COMPOSITIONS, METHODS FOR PREPARATION COMPRISING SIZING OF LIPID VESICLE PARTICLES, AND USES THEREOF” (IMMUNOVACCINE TECHNOLOGIES INC., priority 2017, published 2020).
“And” between values parts separate entries of the source, which are not always exact repeats. Equal entries are not always repeated. Where no end group is shown, it is not given here. [ ]: non-standard residue; d: D form. Met(O) = CS(=O)CC[C@H](N)C(=O)O

Key:
[1] = Lipid assay and degradant limit test by RP-HPLC; conditions: for Lipid Impurities (HPLC) / Lipid Impurities (RP-HPLC): % of DOPC area; for Lipid Impurities (RP-HPLC): solubilized Batch #4 in vials, room temperature
[2] = Peptide assay and peptide impurities by RP-HPLC; format: physicochemical; conditions: for Peptide Content by RP-HPLC / Peptide Impurities by RP-HPLC (% Area): compositions from sized lipid vesicle particles
Experimental: Identification and quantification of peptides was performed using a reversed-phase HPLC (RP-HPLC) method. The method utilizes an Agilent 1100 Series HPLC system equipped with a Phenomenex Luna 5 μm C8(2) column. The mobile phase is a gradient of 16-37% (v/v) acetonitrile in 0.1% (v/v) aqueous trifluoroacetic acid. Column temperature is maintained at 50° C., and UV-PDA detection is performed at 215 nm. The assay may also be used to identify peptide impurities. The tests were validated to the extent required for a phase 1/2 clinical phase study (data not included).

[3] = compositions from sized lipid vesicle particles, Average (n = 5)
[4] = compositions from sized lipid vesicle particles, individual Vial 1-5
[5] = sized-vesicle preparation stored at 5° C. ± 3° C., 0 months
[6] = sized-vesicle preparation stored at 5° C. ± 3° C., 3 months
[7] = sized-vesicle preparation stored at 5° C. ± 3° C., 6 months
[8] = sized-vesicle preparation stored at 5° C. ± 3° C., 9 months
[9] = sized-vesicle preparation stored at 5° C. ± 3° C., 12 months
[10] = sized-vesicle preparation stored at 5° C. ± 3° C., 18 months
[11] = sized-vesicle preparation stored at −20° C. ± 5° C., 0 months
[12] = sized-vesicle preparation stored at −20° C. ± 5° C., 6 months
[13] = sized-vesicle preparation stored at −20° C. ± 5° C., 12 months
[14] = sized-vesicle preparation stored at −20° C. ± 5° C., 18 months
[15] = solubilized Batch #4 in syringe, t = 60 min

| Compound | Peptide Content by RP-HPLC ([2]; Average (n = 5)) | Peptide Content by RP-HPLC ([2]; individual Vial 1-5) | Peptide Assay (RP-HPLC) [2, 5] | Peptide Assay (RP-HPLC) [2, 6] | Peptide Assay (RP-HPLC) [2, 7] | Peptide Assay (RP-HPLC) [2, 8] | Peptide Assay (RP-HPLC) [2, 9] | Peptide Assay (RP-HPLC) [2, 10] | Peptide Assay (RP-HPLC) [2, 11] | Peptide Assay (RP-HPLC) [2, 12] | Peptide Assay (RP-HPLC) [2, 13] | Peptide Assay (RP-HPLC) [2, 14] | further results |
| --- | --- | --- | --- | --- | --- | --- | --- | --- | --- | --- | --- | --- | --- |
| CC(C)CCC[C@@H](C)[C@H]1CC[C@H]2[C@@H]3CC=C4C[C@@H](O)CC[C@]4(C)[C@H]3CC[C@]12C [Cholesterol, cholesterol] | – | – | – | – | – | – | – | – | – | – | – | – | Lipid Content by RP-HPLC [1, 3]: 11.36 mg/mL; Lipid Content by RP-HPLC [1, 4]: 11.20 mg/mL and 11.62 mg/mL and 11.48 mg/mL and 11.44 mg/mL and 11.05 mg/mL; Lipid Assay (RP-HPLC) [1, 5]: 11.03 mg/mL; Lipid Assay (RP-HPLC) [1, 6]: 11.30 mg/mL; Lipid Assay (RP-HPLC) [1, 7]: 12.26 mg/mL; Lipid Assay (RP-HPLC) [1, 8]: 12.11 mg/mL; Lipid Assay (RP-HPLC) [1, 9]: 12.00 mg/mL; Lipid Assay (RP-HPLC) [1, 10]: 12.25 mg/mL; Lipid Assay (RP-HPLC) [1, 11]: 11.03 mg/mL; Lipid Assay (RP-HPLC) [1, 12]: 12.14 mg/mL; Lipid Assay (RP-HPLC) [1, 13]: 11.10 mg/mL; Lipid Assay (RP-HPLC) [1, 14]: 12.85 mg/mL |
| CCCCCCCC/C=C\CCCCCCCC(=O)OC[C@H](COP(=O)([O-])OCC[N+](C)(C)C)OC(=O)CCCCCCC/C=C\CCCCCCCC [DOPC, 1,2-Dioleoyl-sn-glycero-3-phosphocholine] | – | – | – | – | – | – | – | – | – | – | – | – | Lipid Content by RP-HPLC [1, 3]: 119.03 mg/mL; Lipid Content by RP-HPLC [1, 4]: 117.39 mg/mL and 121.44 mg/mL and 120.26 mg/mL and 120.00 mg/mL and 116.07 mg/mL; Lipid Assay (RP-HPLC) [1, 5]: 118.41 mg/mL; Lipid Assay (RP-HPLC) [1, 6]: 112.91 mg/mL; Lipid Assay (RP-HPLC) [1, 7]: 124.60 mg/mL; Lipid Assay (RP-HPLC) [1, 8]: 130.11 mg/mL; Lipid Assay (RP-HPLC) [1, 9]: 120.00 mg/mL; Lipid Assay (RP-HPLC) [1, 10]: 121.35 mg/mL; Lipid Assay (RP-HPLC) [1, 11]: 118.41 mg/mL; Lipid Assay (RP-HPLC) [1, 12]: 123.60 mg/mL; Lipid Assay (RP-HPLC) [1, 13]: 102.63 mg/mL; Lipid Assay (RP-HPLC) [1, 14]: 128.00 mg/mL |
| CCCCCCCC/C=C\CCCCCCCC(=O)O [Oleic Acid, oleic acid] | – | – | – | – | – | – | – | – | – | – | – | – | DOPC degradants by RP-HPLC [1, 4]: 0.60 mg/mL and 0.50 mg/mL; Lipid Degradants (RP-HPLC) [1, 5]: 0.3 mg/mL; Lipid Degradants (RP-HPLC) [1, 6]: 0.2 mg/mL; Lipid Degradants (RP-HPLC) [1, 7]: 0.2 mg/mL; Lipid Degradants (RP-HPLC) [1, 8]: 0.4 mg/mL; Lipid Degradants (RP-HPLC) [1, 9]: 0.2 mg/mL; Lipid Degradants (RP-HPLC) [1, 10]: 0.2 mg/mL; Lipid Degradants (RP-HPLC) [1, 11]: 0.3 mg/mL; Lipid Degradants (RP-HPLC) [1, 12]: 0.3 mg/mL; Lipid Degradants (RP-HPLC) [1, 13]: 0.2 mg/mL; Lipid Degradants (RP-HPLC) [1, 14]: 0.3 mg/mL; DOPC degradants by RP-HPLC [1, 15]: 0.60 mg/mL |
| CCCCCCCC/C=C\CCCCCCCC(=O)O[C@H](COC(=O)CCCCCCCCCCCCCCC)COP(=O)([O-])OCC[N+](C)(C)C [POPC] | – | – | – | – | – | – | – | – | – | – | – | – | Lipid Impurities (HPLC) ([1]; solubilized Batch #4 in syringe, t = 0): 2.10%; Lipid Impurities (HPLC) ([1]; solubilized Batch #4 in syringe, t = 30 min): 2.91%; Lipid Impurities (HPLC) [1, 15]: 2.94%; Lipid Impurities (RP-HPLC) ([1]; t = 0): 2.65%; Lipid Impurities (RP-HPLC) ([1]; t = 4 h): 1.21%; Lipid Impurities (RP-HPLC) ([1]; t = 24 h): 1.04%; Lipid Impurities (% Area) [1, 3]: 2.65%; Lipid Impurities (% Area) [1, 4]: 2.79% and 2.62% and 2.63% and 2.61% and 2.59% |
| FTELTLGEF (Survivin HLA-A1 (modified)) [SurA1.T, survivin peptide antigen [HLA-A1]] | 1.09 mg/mL | 1.07 mg/mL (2×) and 1.10 mg/mL and 1.09 mg/mL and 1.11 mg/mL | 1.03 mg/mL | 1.02 mg/mL | 1.03 mg/mL | 1.02 mg/mL | 0.97 mg/mL | 1.07 mg/mL | 1.03 mg/mL | 1.04 mg/mL | 0.99 mg/mL | 1.04 mg/mL | – |
| LMLGEFLKL (Survivin HLA-A2 (modified)) [SurA2.M, survivin peptide antigen [HLA-A2]] | 1.14 mg/mL | 1.11 mg/mL and 1.14 mg/mL (2×) and 1.15 mg/mL and 1.18 mg/mL | 0.95 mg/mL | 0.91 mg/mL | 0.91 mg/mL | 0.89 mg/mL | 0.88 mg/mL | 0.91 mg/mL | 0.95 mg/mL | 0.92 mg/mL | 0.89 mg/mL | 0.91 mg/mL | – |
| LPPAWQPFL (Survivin HLA-B7) [SurB7, survivin peptide antigen [HLA-B7]] | 1.09 mg/mL | 1.07 mg/mL (2×) and 1.11 mg/mL (2×) and 1.08 mg/mL | 1.09 mg/mL | 1.01 mg/mL | 1.00 mg/mL | 1.00 mg/mL | 0.99 mg/mL | 1.03 mg/mL | 1.09 mg/mL | 1.01 mg/mL | 1.01 mg/mL | 1.03 mg/mL | – |
| RISTFKNWPK (Survivin HLA-A3 (modified)) [SurA3.K, survivin peptide antigen [HLA-A3], added after sizing] | 0.89 mg/mL | 0.86 mg/mL and 0.90 mg/mL and 0.91 mg/mL and 0.88 mg/mL and 0.92 mg/mL | 1.04 mg/mL | 0.99 mg/mL | 0.93 mg/mL | 0.92 mg/mL | 0.93 mg/mL | 1.02 mg/mL | 1.04 mg/mL | 0.98 mg/mL | 0.97 mg/mL | 1.02 mg/mL | loss in content from the nominal target limit in the final bulk ([2]; peptide combined with lipid mixture before size extrusion (retained by extruder membrane)): approximately 25% |
| RRT 3.66 LMLGEFLKL (M oxidized to sulfoxide; SEQ ID NO: 2): peptide impurity: LMLGEFLKL with M oxidized to sulfoxide (L[Met(O)]LGEFLKL) | – | – | – | – | – | – | – | – | – | – | – | – | Peptide Impurities by RP-HPLC (% Area) ([2]; Average (n = 5)): 0.55%; Peptide Impurities by RP-HPLC (% Area) ([2]; individual Vial 1-5): 0.65% and 0.40% and 0.53% and 0.58% and 0.57% |
| STFKNWPFL (Survivin HLA-A24) [SurA24, survivin peptide antigen [HLA-A24]] | 0.93 mg/mL | 0.92 mg/mL and 0.94 mg/mL and 0.93 mg/mL and 0.91 mg/mL and 0.95 mg/mL | 1.00 mg/mL | 0.98 mg/mL | 0.98 mg/mL | 0.95 mg/mL | 0.95 mg/mL | 0.99 mg/mL | 1.00 mg/mL | 0.99 mg/mL | 0.97 mg/mL | 1.00 mg/mL | – |
